The target of experiment [1] is TGF-β1.
Target sequence in this assay (P01137 279-390): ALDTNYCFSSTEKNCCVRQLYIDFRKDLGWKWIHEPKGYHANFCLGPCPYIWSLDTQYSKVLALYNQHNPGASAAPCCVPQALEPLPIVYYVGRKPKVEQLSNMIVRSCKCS
In experiment [2] the target is TGF-β2.
Target sequence in this assay (P61812 303-414): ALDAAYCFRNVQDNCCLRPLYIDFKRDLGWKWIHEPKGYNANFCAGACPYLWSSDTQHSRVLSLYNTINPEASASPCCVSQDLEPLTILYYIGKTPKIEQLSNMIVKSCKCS
Experiment [3] addresses TGF-β2. The source holds these as a separate data set.
Experiment [4] deals with TGF-β1. The source holds these as a separate data set.
For the next experiment, the target named is Synagis-T22d35 (UniProt P37173). Put plainly: SPR.
In another experiment the target is Synagis. Put plainly: SPR.
Experiment [5] addresses TGF-β1. The source holds these as a separate data set.
Target sequence in this assay (P01137 279-390): as the sequence (P01137 279-390) above

Read-outs that look alike come from different tables or passages of the source.

Chain of Synagis (heavy, as listed by the source, chain 1 of 2): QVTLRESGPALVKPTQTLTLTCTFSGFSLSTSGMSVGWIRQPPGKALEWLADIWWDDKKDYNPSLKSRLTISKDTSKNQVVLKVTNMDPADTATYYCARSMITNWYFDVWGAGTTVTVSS
Chain of Synagis (light, as listed by the source, chain 2 of 2): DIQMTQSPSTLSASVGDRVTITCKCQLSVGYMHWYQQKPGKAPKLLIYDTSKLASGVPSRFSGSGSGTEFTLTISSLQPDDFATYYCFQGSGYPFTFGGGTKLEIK
Chain of RSV-F (P03420 26-574): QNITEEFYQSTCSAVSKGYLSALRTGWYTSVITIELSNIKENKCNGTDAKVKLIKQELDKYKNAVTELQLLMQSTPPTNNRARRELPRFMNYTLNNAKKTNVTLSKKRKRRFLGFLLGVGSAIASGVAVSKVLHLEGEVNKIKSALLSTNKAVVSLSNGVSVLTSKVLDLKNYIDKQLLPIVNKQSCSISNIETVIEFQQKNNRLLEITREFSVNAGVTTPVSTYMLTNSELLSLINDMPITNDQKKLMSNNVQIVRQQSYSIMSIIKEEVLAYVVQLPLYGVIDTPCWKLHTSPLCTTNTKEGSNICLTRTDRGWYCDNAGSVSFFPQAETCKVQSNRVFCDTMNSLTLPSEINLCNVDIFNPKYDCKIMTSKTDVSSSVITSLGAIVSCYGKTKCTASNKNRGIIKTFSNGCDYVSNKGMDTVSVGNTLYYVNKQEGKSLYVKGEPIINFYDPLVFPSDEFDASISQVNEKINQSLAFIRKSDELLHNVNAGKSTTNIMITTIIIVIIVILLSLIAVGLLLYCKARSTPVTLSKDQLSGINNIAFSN
Chain of T22d35-hIgG2Fc(CC)ΔK (P37173 other isoform, or with tags, fused parts or gaps mutant): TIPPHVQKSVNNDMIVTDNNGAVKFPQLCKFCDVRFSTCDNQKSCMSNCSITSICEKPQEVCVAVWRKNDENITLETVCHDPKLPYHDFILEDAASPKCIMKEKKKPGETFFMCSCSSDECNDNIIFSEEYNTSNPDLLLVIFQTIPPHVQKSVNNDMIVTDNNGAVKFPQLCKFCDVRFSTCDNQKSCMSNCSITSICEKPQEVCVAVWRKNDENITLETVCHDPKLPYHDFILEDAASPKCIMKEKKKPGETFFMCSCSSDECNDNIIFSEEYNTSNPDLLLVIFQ
Chain of T22d35 (single-chain fusion of two TGF-β type II receptor ectodomains) (P37173 other isoform, or with tags, fused parts or gaps): as the sequence (P37173 other isoform, or with tags, fused parts or gaps mutant) above
Chain of Avastin-T22d35 (P37173 whole entry, looked up): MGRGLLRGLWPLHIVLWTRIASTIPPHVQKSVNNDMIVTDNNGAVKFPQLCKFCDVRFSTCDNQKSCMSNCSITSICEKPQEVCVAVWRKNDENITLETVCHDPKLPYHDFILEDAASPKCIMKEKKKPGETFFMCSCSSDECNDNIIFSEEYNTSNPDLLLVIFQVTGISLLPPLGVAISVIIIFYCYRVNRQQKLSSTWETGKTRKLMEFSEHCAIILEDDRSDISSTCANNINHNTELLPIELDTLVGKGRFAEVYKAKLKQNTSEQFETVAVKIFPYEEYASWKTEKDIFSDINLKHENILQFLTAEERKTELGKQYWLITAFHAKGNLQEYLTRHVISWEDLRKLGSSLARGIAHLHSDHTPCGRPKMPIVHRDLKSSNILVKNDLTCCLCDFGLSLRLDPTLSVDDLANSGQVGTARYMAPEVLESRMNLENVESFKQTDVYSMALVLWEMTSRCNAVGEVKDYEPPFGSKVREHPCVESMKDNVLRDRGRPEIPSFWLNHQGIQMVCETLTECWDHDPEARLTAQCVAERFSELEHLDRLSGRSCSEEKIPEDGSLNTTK
Chain of hIgG2Fc(CC)ΔK-T22d35 (P37173 other isoform, or with tags, fused parts or gaps mutant): as the sequence (P37173 other isoform, or with tags, fused parts or gaps mutant) above

For the substance “T22d35-hIgG2Fc(CC)ΔK (from UniProt P37173 23-166; P37173 23-166) (Fc fusion)”, the IC50 (nM) of neutralization of TGF-β1 (10 pM), A549 IL-11 release assay with TGF-β1 [1] amounted to 0.00331 nM. Further, in the experiment with TGF-β2 [2], the IC50 (nM) of neutralization of TGF-β2 (10 pM), A549 IL-11 release assay turned out to be 4.76 nM.
Take “hIgG2Fc(CC)ΔK-T22d35 (from UniProt P37173 23-166; P37173 23-166) (Fc fusion)”: in the experiment with TGF-β2 [2], the IC50 (nM) of neutralization of TGF-β2 (10 pM), A549 IL-11 release assay amounted to 1.41 nM.
“Herceptin-T22d35 (from UniProt P37173 23-166; P37173 23-166) (antibody)” gave an IC50 (nM) of neutralization of TGF-β2 (10 pM), A549 IL-11 release assay with TGF-β2 [3] of 4.35 nM. The same substance had an IC50 (nM) of neutralization of TGF-β3 (10 pM), A549 IL-11 release assay in the experiment with TGF-β3 of 0.00249 nM.
On to “FC5VHH-Fc-T2m (from UniProt P37173 23-166) (Fc fusion)”, for which the IC50 (nM) of neutralization of TGF-β1 (10 pM), A549 IL-11 release assay with TGF-β1 [4] came out at 0.00569 nM.
“Cetuximab-T22d35 (from UniProt P37173 23-166; P37173 23-166) (antibody)” returned an IC50 (nM) of neutralization of TGF-β2 (10 pM), A549 IL-11 release assay with TGF-β2 [3] of 3.33 nM. For the same substance, in the experiment with TGF-β3, the IC50 (nM) of neutralization of TGF-β3 (10 pM), A549 IL-11 release assay came out at 0.00428 nM.
In the experiment with TGF-β1 [4], “FC5VHH-Fc-T22d35 (from UniProt P37173 23-166; P37173 23-166) (Fc fusion)” returned an IC50 (nM) of neutralization of TGF-β1 (10 pM), A549 IL-11 release assay of 0.00235 nM.
Take “RSV-F (from UniProt P03420 26-574) (natural protein)”: in the experiment with Synagis-T22d35, the equilibrium dissociation constant (Kd) stood at 4.1 nM, the dissociation rate constant (koff) stood at 0.00142 s⁻¹ and the association rate constant (kon) was found to be 35500 M⁻¹ s⁻¹. Further, in the experiment with Synagis, the Kd came to 6.6 nM, the off-rate constant (koff) was determined as 0.00168 s⁻¹ and the kon was 25700 M⁻¹ s⁻¹.
In the case of “Avastin-T22d35 (from UniProt P37173 23-166; P37173 23-166) (antibody)”, the IC50 (nM) of neutralization of TGF-β2 (10 pM), A549 IL-11 release assay in the experiment with TGF-β2 [3] came to 2.99 nM. The substance further yielded an IC50 (nM) of neutralization of TGF-β3 (10 pM), A549 IL-11 release assay with TGF-β3 of 0.00276 nM.
In the experiment with TGF-β1 [1], “T22d35 (single-chain fusion of two TGF-β type II receptor ectodomains) (from UniProt P37173 23-166; P37173 23-166) (domain or fragment)” had an IC50 (nM) of neutralization of TGF-β1 (10 pM), A549 IL-11 release assay of 3.25 nM. Further, in the experiment with TGF-β1 [5], the IC50 of neutralization of TGF-β1, A549 IL-11 release assay (Figure 2B) came out at 0.5 nM.
In the experiment with TGF-β3, “Cetuximab-T2m (from UniProt P37173 23-166) (antibody)” returned an IC50 (nM) of neutralization of TGF-β3 (10 pM), A549 IL-11 release assay of 0.0332 nM.

For the origin of these results see PMC12597760.
